Results: US20250027068
Where a chain is given by its changes, count along the chain named.

B1: PRT-96 (protein)
chain: MANQEIRYSEVTPYTVTSVWTKGVTPPADFTQGEDVFHAPYVANQGWYDITKTFNGKDDLLCGAATAGNMLHWWFDQNKEKIEAYLKKHPDKQKIMFGDQELLDVRKAINTKGDQTNSELFNYFRDKAFPGLSARRIGVMPDLVLDMFINGYYLNVYKTQTTDVNRTYQEKDRRGGIFDAVFTRGDQSKLLTSRHDFKEKNLKEISDLIKKELTEGKALGLSHTYANVRINHVINLWGADFDSEGNLKAIYVTDSDSNASIGMKKYFVGVNSAGKVAISAKEIKEDNIGAQVLGLFTLSTGQDSWNQTN
B2: PRT-101 (protein)
chain: B1 chain with T15H, D29K, A108V, R173K, E244N
B3: PRT-99 (protein)
chain: B1 chain with T15H, D29K, A108V, E244N, S304I
B4: PRT-102 (protein)
chain: B1 chain with T15H, D29K, A108V, K211Q, E244N
B5: PRT-105 (protein)
chain: B1 chain with T15H, D29K, K81E, A108V, E244N
B6: PRT-103 (protein)
chain: B1 chain with T15H, D29K, A108V, D114S, E244N
B7: PRT-104 (protein)
chain: B1 chain with T15H, D29K, A108V, Y157T, E244N
B8: PRT-98 (protein)
chain: B1 chain with T15H, D29K, A108V, I137L, E244N
B9: PRT-100 (protein)
chain: B1 chain with T15H, D29K, A108V, G131N, E244N
B10: PRT-97 (protein)
chain: B1 chain with T15H, D29K, D91E, A108V, E244N
B11: PRT-167 (protein)
chain: MANQEIRYSEVTPYHVTSVWTKGVTPPTDFTQGEDVFHAPYKANQGWYDITKTFNGKDDLLCGAATAGNMLHWWFDQNKDQIKRYLEEHPEKQKINFNGEQMFDVKEAIDTKNSQLDSKLFEYFKEKAFPYLSTKHLGVFPDHVIDMFINGYRLSLTNHGPTPVKEGSKDPRGGIFDAVFTRGDQSKLLTSRHDFKEKNLKEISDLIKKELTEGKALGLSHTYANVRINHVINLWGADFDSNGNLKAIYVTDSDSNASIGMKKYFVGVNSAGKVAISAKEIKEDNIGAQVLGLFTLSTGQDSWNQTN
B12: PRT-169 (protein)
chain: B11 chain with S114D
B13: PRT-170 (protein)
chain: B11 chain with T31I, Q32K, N44H
B14: PRT-171 (protein)
chain: B11 chain with T31I, Q32K, N44G
B15: PRT-168 (protein)
chain: B11 chain with T28E
B16: PRT-106 (protein)
chain: MRNATEAYAKEVPHQITSVWTKGVTPLTPEQFRYNNEDVIHAPYLAHQGWYDITKTFNGKDNLLCGAATAGNMLHWWFDQNKTEIEAYLSKHPEKQKIIFNNQELFDLKAAIDTKDSQTNSQLFNYFRDKAFPNLSARQLGVMPDLVLDMFINGYYLNVFKTQSTDVNRPYQDKDKRGGIFDAVFTRGDQTTLLTARHDLKNKGLNDISTLIKQELTEGRALALSHTYANVSISHVINLWGADFNAEGNLEAIYVTDSDANASIGMKKYFVGINASGKVAISAKKIEGENIGAQVLGLFTLSSGKDIWQKLS
B17: PRT-107 (protein)
chain: B16 chain with H47N, T56A, N58D, D173T, L211I, R220K, I273V, S276A, K278H
B18: PRT-108 (protein)
chain: B16 chain with L27P, L45T, N58D, S276A, K278H
B19: PRT-109 (protein)
chain: B16 chain with Q15T, L45V, N58D, D207E, R220K, A260D, I273V, S276A
B20: PRT-110 (protein)
chain: B16 chain with L27P, I40F, L45T, N58D, Q122A, G204T, L211I, A260S, I273V

Molecular target: pooled human IgG (human IgG1,2,3 and 4)

Protein	Enzyme Activity Endpoint Assay: Fab′2	Enzyme Activity Endpoint Assay: Fc	Enzyme Activity Endpoint Assay: IgG	Enzyme Activity Endpoint Assay: scIgG	Enzyme Activity Endpoint Assay: Fab'2
B1	482 ng/µL	156 ng/µL	0 ng/µL	0 ng/µL	–
B2	655 ng/µL	204 ng/µL	0 ng/µL	0 ng/µL	–
B3	489 ng/µL	152 ng/µL	0 ng/µL	0 ng/µL	–
B4	607 ng/µL	160 ng/µL	0 ng/µL	0 ng/µL	–
B5	663 ng/µL	192 ng/µL	0 ng/µL	13 ng/µL	–
B6	544 ng/µL	158 ng/µL	0 ng/µL	0 ng/µL	–
B7	259 ng/µL	130 ng/µL	0 ng/µL	0 ng/µL	–
B8	592 ng/µL	180 ng/µL	0 ng/µL	0 ng/µL	–
B9	513 ng/µL	178 ng/µL	0 ng/µL	0 ng/µL	–
B10	524 ng/µL	185 ng/µL	0 ng/µL	0 ng/µL	–
B11	–	161 ng/µL	0 ng/µL	0 ng/µL	572 ng/µL
B12	–	188 ng/µL	0 ng/µL	0 ng/µL	658 ng/µL
B13	–	193 ng/µL	0 ng/µL	0 ng/µL	755 ng/µL
B14	–	187 ng/µL	23 ng/µL	0 ng/µL	765 ng/µL
B15	–	159 ng/µL	0 ng/µL	0 ng/µL	628 ng/µL
B16	739 ng/µL	202 ng/µL	0 ng/µL	0 ng/µL	–
B17	553 ng/µL	200 ng/µL	0 ng/µL	117 ng/µL	–
B18	666 ng/µL	203 ng/µL	0 ng/µL	0 ng/µL	–
B19	457 ng/µL	181 ng/µL	28 ng/µL	0 ng/µL	–
B20	575 ng/µL	136 ng/µL	0 ng/µL	0 ng/µL	–
